Reference: patent US10413588B2, “Probiotic function of human intelectin” (Wisconsin Alumni Research Foundation, priority 2015, dated 2019)
Entries after “also recorded” stand apart in the source; their conditions may differ.

What was measured:
[1] = Microbial Glycan Microarray (MGMv2); format: binding, Shigella boydii; conditions: Strep-hIntL-1 50 μg/mL; terminal α-Galf residue
Description: (§1) Strep-hIntL-1 was used to interrogate the Microbial Glycan Microarray version 2 (MGMv2). Construction of the MGMv2 is previously described. Briefly, bacterial polysaccharide samples were dissolved and diluted to 0.5 mg/mL in printing buffer (150 mM sodium phosphate buffer (8.4)+0.005% Tween-20). Samples were immobilized on NETS-activated glass slides (SlideH, Schott/Nexterion) using a MicroGrid II (Digilab) contact microarray printer equipped with SMP-4B printing pins (Telechem). Six replicates of each bacterial glycan sample were printed. Covalent coupling of glycans to the surface was facilitated by incubation for 1 hour postprint at 100% relative humidity. The remaining reactive NHS-moieties were quenched using a blocking solution (50 mM ethanolamine in 50 mM borate buffer (9.2)). Blocked slides were stored at −20° C. until assays were performed. […] The Strep-Tag® II on bound hIntL-1 was detected using StrepMAB-Classic Chromeo647 (10 μg/mL, IBA GmbH Lifesciences) diluted in binding buffer applied directly to the array surface and allowed to incubate for 1 hour. […] Signal data was calculated as the average of 4 values after removing the high and low values of the 6 replicates. Data were plotted using Excel (Microsoft) as average Relative Fluorescence Units (RFU) versus print identification number. […]

[2] = Microbial Glycan Microarray (MGMv2); format: binding, E. coli; conditions: Strep-hIntL-1 50 μg/mL; terminal α-Galf residue
Description: as §1

[3] = hIntL-1 carbohydrate binding ELISA-like assay
Description: To fabricate carbohydrate-displaying surfaces, 0.5 μg of streptavidin (Prozyme, cat. no. SA20) was adsorbed onto a Maxisorp (Nunc) flat bottom 96 well plate in PBS. Wells were washed with PBS and then coated with 5 μM of carbohydrate-biotin ligand in PBS for 1 hour at 22° C. Wells were blocked with bovine serum albumin (BSA) in ELISA buffer (20 mM HEPES (7.4) 150 mM NaCl, 10 mM CaCl2, and 0.1% tween-20). Samples containing hIntL-1 were prepared by serial dilution into ELISA buffer+0.1% BSA and added to wells for 2 hours at 22° C. Wells were washed four times with ELISA buffer. Bound hIntL-1 was detected using 0.75 μg/mL of a sheep IgG hIntL-1 antibody (R&D Systems, cat. no. AF4254) in ELISA buffer+0.1% BSA for 2 hours at 22° C. Wells were washed with ELISA buffer. A donkey anti-sheep IgG horseradish peroxidase (HRP) conjugate (Jackson ImmunoResearch Laboratories) was added at a 1:5,000 dilution in ELISA buffer+0.1% BSA for 1 hour at 22° C. Wells were washed and hIntL-1 was detected colorimetrically with addition of 1-Step Ultra TMB-ELISA (Pierce). Once sufficient signal was achieved (typically <2 min.), the reaction was quenched with addition of equal volume 2 M H2SO4. Plates were read at 450 nm on an ELx800 plate reader (Bio-Tek). When testing the Ca^2+ dependency of hIntL-1, 1 mM EDTA replaced 10 mM CaCl2 in all steps. Data were analyzed on Prism6 (GraphPad). […]

[4] = hIntL-1 surface plasmon resonance (SPR); format: binding
Description: All hIntL-1 SPR was performed on a ProteOn XPR36 (Bio-Rad) at the University of Wisconsin-Madison Department of Biochemistry Biophysics Instrumentation Facility (BIF). To measure hIntL-1 binding, ProteOn NLC sensor chips (Bio-Rad) (NeutrAvidin coated chips) were used to capture carbohydrate-biotin ligand. All experiments presented here were conducted at surface saturated levels of ligand, ˜200 RU. In all experiments, captured biotin served as a control. Samples containing purified hIntL-1 were prepared by serial dilution into hIntL-1 SPR running buffer (20 mM HEPES (7.4) 150 mM NaCl, 1 mM CaCl2, and 0.005% tween-20). Surfaces were regenerated with short injections of 10 mM HCl. All data was interspot corrected and processed using the Bio-Rad ProteOn software package.

B1: hIntL-1: human lectin intelectin-1, accession no. Q8WWA0; recombinant disulfide-linked trimer from HEK 293T cells, used also N-terminally Strep-tagged (Strep-hIntL-1) (protein, listed as Homo sapiens)
chain: MNQLSFLLFLIATTRGWSTDEANTYFKEWTCSSSPSLPRSCKEIKDECPSAFDGLYFLRTENGVIYQTFCDMTSGGGGWTLVASVHENDMRGKCTVGDRWSSQQGSKAVYPEGDGNWANYNTFGSAEAATSDDYKNPGYYDIQAKDLGIWHVPNKSPMQHWRNSSLLRYRTDTGFLQTLGHNLFGIYQKYPVKYGEGKCWTDNGPVIPVVYDFGDAQKTASYYSPYGQREFTAGFVQFRVFNNERAANALCAGMRVTGCNTEHHCIGGGGYFPEASPQQCGDFSGFDWSGYGTHVGYSSSREITEAAVLLFYR
signal on microbial glycan array [1]: 26 RFU
signal on microbial glycan array [2]: 49 RFU
binding to immobilized α-Neu5Ac [3]: lack of affinity; also recorded: does not bind
SPR response to immobilized β-galactopyranose ([4]; attributed to the extended anomeric alkyl linker): small response
binding to immobilized β-Galf by SPR ([4]; immobilized carbohydrate-biotin ligand, 1 mM CaCl2): robust binding
